Test results from publication PMC7873564.

Target: mouse IgMκ paraprotein TEPC183
Test: flow cytometry on cells
Conditions: mean ± 1 SD from three independent experiments; parent: est. 3.7; read off a plot

response (MFI index (x10^2)): 2.1
Substance: human IgM Fc receptor (FcµR), wild type (from UniProt O60667-1) N66del
